From patent US20070224196A1 (ELUSYS THERAPEUTICS, published 2007)
Positions count from the first letter of the chain named.

B1: E DI VH4/VL2 (antibody, V domains shown)
VH: DVQLQESGPGLVKPSQTLSLTCTVSGYSITSDYAWNWIRQFPGKGLEWIGYISYSGSTSYHPSLKSRISISRDTSKNQFFLQMNSVTTEDTATYYCTTIINYDKYDWYFDVWGQGTTVTVSS
VL: DIVLTQSPASLVVSVRQRATISCRASQSVRTSSYSYIHWYQQKPGQPPKLLIKYASSLESGVPARFSGSGSGTDFTLNISPVEEEDTATYYCQHSWEIPWTFGPGTTVEIK
notes: also called E DI V4/VL2
B2: E DI VH5/VL1 (antibody, V domains shown)
VH: B1 VH with S25T, I49M
VL: B1 VL with K53Y, T107K
notes: also called immunogenicity-reduced Ab VH5/VL1
B3: E DI VH1/VL2 (antibody, V domains shown)
VH: B1 VH with I29M, S59T, L64V, S69T, Y94T, V111Y
VL: B1 VL
B4: E DI VH2/VL1 44H1 (antibody, V domains shown)
VH: B1 VH with I29M, L64V, S69T
VL: B1 VL with K53Y, T107K
notes: also called immunogenicity-reduced Ab VH2/VL1
B5: E DI VH3/VL1 12H10 (antibody, V domains shown)
VH: B1 VH with I29M
VL: B1 VL with K53Y, T107K
notes: also called immunogenicity-reduced Ab VH3/VL1
B6: E DI VH3/VL2 15A12 (antibody, V domains shown)
VH: B1 VH with I29M
VL: B1 VL
notes: also called immunogenicity-reduced Ab VH3/VL2

These binders were tested against T1, human erythrocyte complement receptor 1 (CR1) (human, UniProt P17927 42-2039) (assay: erythrocyte binding assay, antibody with RBCs in solution, A405 read-out).
T1 construct: whole, on cells; also called C3b receptor; CD35
T1 sequence (P17927 42-2039): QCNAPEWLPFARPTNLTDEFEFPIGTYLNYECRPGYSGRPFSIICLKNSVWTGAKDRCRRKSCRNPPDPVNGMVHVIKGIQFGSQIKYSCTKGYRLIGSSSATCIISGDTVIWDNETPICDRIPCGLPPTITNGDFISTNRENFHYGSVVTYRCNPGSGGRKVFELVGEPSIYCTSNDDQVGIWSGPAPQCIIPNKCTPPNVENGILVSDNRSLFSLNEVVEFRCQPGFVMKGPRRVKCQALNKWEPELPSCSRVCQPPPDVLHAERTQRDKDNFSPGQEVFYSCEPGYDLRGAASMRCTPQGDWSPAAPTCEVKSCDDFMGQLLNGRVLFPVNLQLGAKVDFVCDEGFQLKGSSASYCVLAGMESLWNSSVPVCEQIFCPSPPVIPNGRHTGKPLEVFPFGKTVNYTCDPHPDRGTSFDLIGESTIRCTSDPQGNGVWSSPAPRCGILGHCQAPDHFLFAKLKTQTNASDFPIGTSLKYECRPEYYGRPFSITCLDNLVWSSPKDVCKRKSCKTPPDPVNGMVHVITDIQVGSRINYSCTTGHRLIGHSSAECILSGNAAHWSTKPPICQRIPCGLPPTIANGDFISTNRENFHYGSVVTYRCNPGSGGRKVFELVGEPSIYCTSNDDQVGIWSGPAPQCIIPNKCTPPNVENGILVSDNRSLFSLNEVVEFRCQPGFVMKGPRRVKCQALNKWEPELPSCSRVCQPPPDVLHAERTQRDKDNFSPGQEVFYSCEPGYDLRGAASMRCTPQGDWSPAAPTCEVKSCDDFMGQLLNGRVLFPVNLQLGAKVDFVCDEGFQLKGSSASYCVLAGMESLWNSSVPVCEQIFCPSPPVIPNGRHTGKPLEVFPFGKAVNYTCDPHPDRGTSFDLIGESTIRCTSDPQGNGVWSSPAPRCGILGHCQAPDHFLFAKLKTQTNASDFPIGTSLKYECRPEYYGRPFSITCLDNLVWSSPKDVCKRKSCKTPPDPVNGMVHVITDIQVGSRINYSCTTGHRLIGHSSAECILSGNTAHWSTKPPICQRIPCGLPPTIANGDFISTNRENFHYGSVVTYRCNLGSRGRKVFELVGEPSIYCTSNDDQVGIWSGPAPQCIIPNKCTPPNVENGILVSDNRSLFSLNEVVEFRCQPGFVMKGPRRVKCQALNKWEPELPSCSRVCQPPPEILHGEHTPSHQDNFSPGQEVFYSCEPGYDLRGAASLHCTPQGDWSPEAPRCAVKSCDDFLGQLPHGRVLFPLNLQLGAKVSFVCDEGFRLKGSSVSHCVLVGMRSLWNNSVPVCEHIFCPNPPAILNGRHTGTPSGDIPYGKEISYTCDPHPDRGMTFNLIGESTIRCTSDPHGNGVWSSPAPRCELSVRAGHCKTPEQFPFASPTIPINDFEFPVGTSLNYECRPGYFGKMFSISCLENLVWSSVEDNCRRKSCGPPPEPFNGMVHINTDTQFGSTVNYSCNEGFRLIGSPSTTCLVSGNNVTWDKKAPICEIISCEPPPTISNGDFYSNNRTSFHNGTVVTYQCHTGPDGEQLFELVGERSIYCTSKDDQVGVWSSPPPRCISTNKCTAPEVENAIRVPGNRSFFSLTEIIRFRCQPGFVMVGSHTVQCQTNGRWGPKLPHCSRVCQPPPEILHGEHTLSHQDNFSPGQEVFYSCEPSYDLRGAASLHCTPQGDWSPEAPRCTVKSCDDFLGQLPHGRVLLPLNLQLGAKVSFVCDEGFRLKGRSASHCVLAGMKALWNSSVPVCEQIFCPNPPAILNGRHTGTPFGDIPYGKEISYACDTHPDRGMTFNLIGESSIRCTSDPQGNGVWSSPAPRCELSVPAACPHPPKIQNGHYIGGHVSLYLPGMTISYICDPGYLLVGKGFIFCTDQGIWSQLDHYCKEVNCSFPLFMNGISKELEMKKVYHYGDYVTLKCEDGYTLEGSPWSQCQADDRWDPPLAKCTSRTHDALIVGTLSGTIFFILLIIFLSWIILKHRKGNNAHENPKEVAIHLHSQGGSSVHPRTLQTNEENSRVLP
For B1, the “ng of antibody at A405 0.4” value was 30 ng. B2 was tested, and the “ng of antibody at A405 0.4” value was 2 ng. In the case of B3, the “ng of antibody at A405 0.4” value is reported as 9 ng. For B4, the “ng of antibody at A405 0.4” value was 12 ng. With B5 the “ng of antibody at A405 0.4” value was 4 ng.

The binders below were run against T1, human erythrocyte complement receptor 1 … (assay: erythrocyte binding assay (FIGS. 10-13)).
With B1 the “fold reduction of binding compared to the chimeric antibody” value (“fold reduction of binding” below) was about 10 fold. In the case of B3, the “fold reduction of binding” value is reported as about 10 fold. For B4, the “fold reduction of binding” value was about 2 fold. B6 was tested, and the “fold reduction of binding” value was about 10 fold.
